Like-named read-outs stand apart in the source and are kept apart here. Bridges are numbered along the chain shown (N, C = ends). Where no end group is shown, it is not given here. The star is where a group is joined. Biotin = O=C1N[C@H]2[C@H](CS[C@H]2CCCCC(=O)*)N1
Assays:
soluble TPO-R [1] = molecular target: T1, soluble TPO-R (UniProt P40238 26-491); assay: competition ELISA vs MBP-TPO156
Method: (§1) The amount of alkaline phosphatase in each well was then determined using standard methods.

full length human TPO-R [2] = molecular target: T2, full length human TPO-R (human, UniProt P40238 26-635); assay: cell-based or functional assay
T2 sequence (looked up): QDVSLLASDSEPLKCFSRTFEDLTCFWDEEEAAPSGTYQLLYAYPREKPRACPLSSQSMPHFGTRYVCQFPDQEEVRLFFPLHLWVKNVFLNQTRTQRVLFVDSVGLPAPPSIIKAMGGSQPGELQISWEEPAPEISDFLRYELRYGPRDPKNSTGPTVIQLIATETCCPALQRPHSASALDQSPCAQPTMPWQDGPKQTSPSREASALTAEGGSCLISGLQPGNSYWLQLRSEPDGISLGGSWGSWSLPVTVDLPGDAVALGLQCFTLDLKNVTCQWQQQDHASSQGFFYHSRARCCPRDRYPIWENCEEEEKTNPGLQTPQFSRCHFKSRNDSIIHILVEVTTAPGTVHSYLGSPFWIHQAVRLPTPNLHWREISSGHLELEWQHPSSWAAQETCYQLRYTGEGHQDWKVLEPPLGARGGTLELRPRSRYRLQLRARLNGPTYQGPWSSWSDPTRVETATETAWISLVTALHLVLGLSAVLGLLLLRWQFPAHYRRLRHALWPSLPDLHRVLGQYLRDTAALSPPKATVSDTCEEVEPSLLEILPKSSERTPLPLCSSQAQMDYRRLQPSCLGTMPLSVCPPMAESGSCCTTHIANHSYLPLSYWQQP

soluble TPO-R [3] = molecular target: T1, soluble TPO-R; assay: competition ELISA vs MBP-TPO156; remark: listed apart in the source
full length human TPO-R [4] = molecular target: T2, full length human TPO-R; assay: cell-based or functional assay; remark: listed apart in the source
full length human TPO-R [5] = molecular target: T2, full length human TPO-R; assay: cell-based or functional assay; remark: listed apart in the source
soluble TPO-R [6] = molecular target: T3, soluble TPO-R (UniProt P40238 26-491); assay: competition ELISA vs MBP-TPO156
T3 construct: extracellular domain; Immobilized through anti-HPAP antibody Ab179; also called thrombopoietin receptor; c-mpl
Method: as §1
(§2) In this example cyclized compounds were subjected to three assays. First, $IC50$ valves were obtained as described above.

soluble TPO-R [7] = molecular target: T3, soluble TPO-R; assay: competition ELISA vs MBP-TPO156; remark: listed apart in the source
soluble TPO-R [8] = molecular target: T1, soluble TPO-R; assay: competition ELISA vs MBP-TPO156; remark: listed apart in the source
Method: as §1, §2

full length human TPO-R [9] = molecular target: T2, full length human TPO-R; assay: cell-based or functional assay; remark: listed apart in the source
soluble TPO-R [10] = molecular target: T3, soluble TPO-R; assay: competition ELISA vs MBP-TPO156; remark: listed apart in the source
Method: as §1, §2

full length human TPO-R [11] = molecular target: T2, full length human TPO-R; assay: cell-based or functional assay; remark: listed apart in the source
soluble TPO-R [12] = molecular target: T1, soluble TPO-R; assay: competition ELISA vs MBP-TPO156; remark: listed apart in the source
soluble TPO-R [13] = molecular target: T1, soluble TPO-R; assay: equilibrium binding ELISA, MBP-TPO or lacI-peptide tracer
soluble TPO-R [14] = molecular target: T1, soluble TPO-R; assay: as above; remark: listed apart in the source

Work on CIEGPTLRQWLAARA (also: further groups not given here, also called [drawing CHEM-US-00062]) [[drawing CHEM-US-00030] (SEQ ID NO:185)(SEQ ID NO:185)] yielded an IC50 (soluble TPO-R [1]) of no more than 500 nM, an EC50 cell proliferation (full length human TPO-R [2]) of no more than 500 nM and an EC50 microphysiometer (full length human TPO-R [2]) of no more than 500 nM. The IC50 (soluble TPO-R [3]) was no more than 500 nM, the EC50 cell proliferation (full length human TPO-R [4]) was no more than 500 nM and the EC50 microphysiometer (full length human TPO-R [4]) was no more than 500 nM.

For ADGPTLREWISFC (also: further groups not given here, structure printed only as a drawing) [[drawing CHEM-US-00004] (SEQ ID NO:173)], the EC50 cell proliferation (full length human TPO-R [5]) was no more than 500 nM, the EC50 microphysiometer (full length human TPO-R [5]) was no more than 500 nM and the IC50 (soluble TPO-R [6]) was no more than 500 nM.

Work on CADGPTLREWISF (also: further groups not given here, structure printed only as a drawing) [[drawing CHEM-US-00031] (SEQ ID NO:186)(SEQ ID NO:186)] yielded an IC50 (soluble TPO-R [3]) of no more than 500 nM, an EC50 cell proliferation (full length human TPO-R [4]) of no more than 500 nM and an EC50 microphysiometer (full length human TPO-R [4]) of no more than 500 nM.

SVQCGPTLRQWLAARNHLS (also: further groups not given here, structure printed only as a drawing) [[drawing CHEM-US-00032] (SEQ ID NO:187)(SEQ ID NO:187)] gave an IC50 (soluble TPO-R [3]) of no more than 500 nM, an EC50 cell proliferation (full length human TPO-R [4]) of no more than 500 nM and an EC50 microphysiometer (full length human TPO-R [4]) of no more than 500 nM.

With MVGPTLRSGC (also: further groups not given here, structure printed only as a drawing) [[drawing CHEM-US-00033] (SEQ ID NO:188)(SEQ ID NO:188)] the IC50 (soluble TPO-R [3]) was roughly 200000 nM and the EC50 cell proliferation (full length human TPO-R [4]) was no more than 200000 nM.

Work on H-CADGPTLREWISFC-NH2 (disulfide 1-14 (inferred), also called [drawing CHEM-US-00034]) [cyclized monomer (SEQ ID NO:12)] yielded an IC50 (soluble TPO-R [7]) of no more than 500 nM, an EC50 cell proliferation (full length human TPO-R [4]) of no more than 500 nM and an EC50 microphysiometer (full length human TPO-R [4]) of no more than 500 nM.

Work on DGPTLREWISFC (also: further groups not given here, structure printed only as a drawing) [[drawing CHEM-US-00037] (SEQ ID NO:189)(SEQ ID NO:189)] yielded an IC50 (soluble TPO-R [3]) of no more than 500 nM, an EC50 cell proliferation (full length human TPO-R [4]) of no more than 500 nM and an EC50 microphysiometer (full length human TPO-R [4]) of no more than 500 nM.

With H-IEGPTLRQWLAARA-NH2 [[H]-IEGPTLRQWLAARA-[NH2]] the IC50 (soluble TPO-R [1]) was no more than 500 nM and the EC50 cell proliferation (full length human TPO-R [2]) was no more than 500 nM.

With CIEGPTLRQWLAARAC (cysteine pairing not given here; also: further groups not given here, structure printed only as a drawing) [[drawing CHEM-US-00060] (SEQ ID NO:194)] the IC50 (soluble TPO-R [1]) was no more than 500 nM and the EC50 cell proliferation (full length human TPO-R [2]) was no more than 500 nM.

For ADGPTLREWISFC (not fully specified; also: further groups not given here) [[drawing CHEM-US-00006] (SEQ ID NO:173)], the EC50 cell proliferation (full length human TPO-R [5]) was no more than 200000 nM and the EC50 microphysiometer (full length human TPO-R [5]) was roughly 200000 nM.

For ADGPTLREWISFC (not fully specified; also: further groups not given here) [[drawing CHEM-US-00013] (SEQ ID NO:173)], the EC50 cell proliferation (full length human TPO-R [5]) was no more than 500 nM and the EC50 microphysiometer (full length human TPO-R [5]) was roughly 200000 nM.

For KADGPTLREWISFE (also: further groups not given here) [[drawing CHEM-US-00014] (SEQ ID NO:181)], the EC50 cell proliferation (full length human TPO-R [5]) was no more than 200000 nM and the EC50 microphysiometer (full length human TPO-R [5]) was roughly 200000 nM.

EADGPTLREWISFK (also: further groups not given here) [[drawing CHEM-US-00015] (SEQ ID NO:182)] was tested, and the EC50 cell proliferation (full length human TPO-R [5]) was no more than 200000 nM and the EC50 microphysiometer (full length human TPO-R [5]) was no more than 200000 nM.

In the case of ADGPTLREWISFC (also: further groups not given here) [[drawing CHEM-US-00016] (SEQ ID NO:173)], the EC50 cell proliferation (full length human TPO-R [5]) is reported as no more than 500 nM and the EC50 microphysiometer (full length human TPO-R [5]) is reported as no more than 200000 nM.

Binder ADGPTLREWISFC (also: further groups not given here) [[drawing CHEM-US-00017] (SEQ ID NO:173)] has an EC50 cell proliferation (full length human TPO-R [5]) of no more than 500 nM and an EC50 microphysiometer (full length human TPO-R [5]) of roughly 200000 nM.

With ADGPTLREWISFE (also: further groups not given here) [[drawing CHEM-US-00018] (SEQ ID NO:183)] the EC50 cell proliferation (full length human TPO-R [5]) was roughly 200000 nM and the EC50 microphysiometer (full length human TPO-R [5]) was roughly 200000 nM.

With CADGPTLRQWISFC (also: cyclized, mode not given here) [SEQ ID NO:12 cyclized, E - Q] the IC50 (soluble TPO-R [8]) was no more than 500 nM, the EC50 cell proliferation (full length human TPO-R [9]) was no more than 500 nM and the EC50 microphysiometer (full length human TPO-R [9]) was no more than 200000 nM.

CAAGPTLREWISFC (also: cyclized, mode not given here) [SEQ ID NO:12 cyclized, D - A] gave an IC50 (soluble TPO-R [8]) of no more than 500 nM, an EC50 cell proliferation (full length human TPO-R [9]) of no more than 200000 nM and an EC50 microphysiometer (full length human TPO-R [9]) of no more than 200000 nM.

For CADGPTLREWIAFC (also: cyclized, mode not given here) [SEQ ID NO:12 cyclized, S - A], the IC50 (soluble TPO-R [10]) was no more than 500 nM, the EC50 cell proliferation (full length human TPO-R [9]) was no more than 500 nM and the EC50 microphysiometer (full length human TPO-R [9]) was no more than 500 nM.

For CADGPTLREWISAC (also: cyclized, mode not given here) [SEQ ID NO:12 cyclized, F - A], the IC50 (soluble TPO-R [10]) was no more than 500 nM, the EC50 cell proliferation (full length human TPO-R [9]) was roughly 200000 nM and the EC50 microphysiometer (full length human TPO-R [9]) was no more than 200000 nM.

With CPTLREWISFC (disulfide 1-11 (inferred); not fully specified) [SEQ ID NO:12 cyclized, ADG - deletion] the IC50 (soluble TPO-R [8]) was no more than 200000 nM and the EC50 microphysiometer (full length human TPO-R [9]) was no more than 200000 nM.

ADGPTLREWISFC-OH (also: further groups not given here) [SEQ ID NO:173 compound, free acid form] showed an EC50 cell proliferation (full length human TPO-R [11]) of no more than 500 nM and an EC50 microphysiometer (full length human TPO-R [11]) of no more than 200000 nM.

With ADGPTLREWISFCG (also: further groups not given here) [SEQ ID NO:173 compound, C-term, Gly addition] the IC50 (soluble TPO-R [12]) was no more than 500 nM and the EC50 cell proliferation (full length human TPO-R [11]) was no more than 500 nM.

TIKGPTLRQWLKSREHTS (free synthetic peptide) [T I K G P T L R Q W L K S R E H T S] gave an IC50 (soluble TPO-R [13]) of no more than 500 nM.

In the case of LAIEGPTLRQWLHGNGRDT (free synthetic peptide) [L A I E G P T L R Q W L H G N G R D T], the IC50 (soluble TPO-R [13]) is reported as no more than 500 nM.

With SIEGPTLREWLTSRTPHS (free synthetic peptide) [S I E G P T L R E W L T S R T P H S] the IC50 (soluble TPO-R [13]) was no more than 500 nM.

GGCTLREWLHGGFCGG (free synthetic peptide) [G G C T L R E W L H G G F C G G] gave an IC50 (soluble TPO-R [14]) of no more than 500 nM.

In the case of GGCADGPTLREWISFCGG (free synthetic peptide) [G G C A D G P T L R E W I S F C G G], the IC50 (soluble TPO-R [13]) is reported as no more than 500 nM.

Binder GNADGPTLRQWLEGRRPKN (free synthetic peptide) [G N A D G P T L R Q W L E G R R P K N] has an IC50 (soluble TPO-R [13]) of no more than 500 nM.

In the case of GGCADGPTLREWISFCGGK(Biotin) (cysteine pairing not given here, also called AF 12285) [G G C A D G P T L R E W I S F C G G K (Biotin)], the IC50 (soluble TPO-R [13]) is reported as no more than 500 nM.

Reference: US7091311 (GlaxoSmithKline, dated 2006)
